# According to patent publication US20190135872A1:
# Legend:
# [1] = target: BG505 NFL-TD+CC2-D4K_L555P (HIV-1 BG505 (clade A)); assay: ELISA, His-captured trimer
# [2] = target: 16055 NFL (I559P) parental (HIV-1 16055 (clade C)); assay: ELISA, His-captured trimer
# [3] = target: BG505 NFL-TD+CC2-D4K_I559P w/rEK (HIV-1 BG505 (clade A)); assay: ELISA, His-captured trimer
# [4] = target: 16055 NFL-TD+CC2-D4K_I559P w/rEK (HIV-1 16055 (clade C)); assay: ELISA, His-captured trimer
# [5] = target: BG505 NFL (I559P) parental (HIV-1 BG505 (clade A)); assay: ELISA, His-captured trimer
# [6] = target: 16055 NFL-CC2 (HIV-1 16055 (clade C)); assay: ELISA, His-captured trimer
# [7] = target: BG505 NFL-CC2 (HIV-1 BG505 (clade A)); assay: ELISA, His-captured trimer
# [8] = target: 16055 NFL-TD+CC2-D4K_L555P w/rEK (HIV-1 16055 (clade C)); assay: ELISA, His-captured trimer
# [9] = target: JRFL NFL-CC2 (HIV-1 JRFL (clade B)); assay: ELISA, His-captured trimer
# [10] = target: BG505 NFL-L555P (HIV-1 BG505 (clade A)); assay: ELISA, His-captured trimer
# [11] = target: BG505 NFL-TD+CC2-D4K_L555P w/rEK (HIV-1 BG505 (clade A)); assay: ELISA, His-captured trimer
# [12] = target: BG505 NFL-TD+CC2-D4K_I559P (HIV-1 BG505 (clade A)); assay: ELISA, His-captured trimer
# [13] = target: BG505 NFL-TD+CC2-D4K_L555P (HIV-1 BG505 (clade A)); assay: BLI, IgG captured, trimer as analyte
# [14] = target: 16055 NFL-TD+CC2-D4K_I559P (HIV-1 16055 (clade C)); assay: BLI, IgG captured, trimer as analyte
# [15] = target: 16055 NFL-CC2 (HIV-1 16055 (clade C)); assay: BLI, IgG captured, trimer as analyte
# [16] = target: BG505 NFL-CC2 (HIV-1 BG505 (clade A)); assay: BLI, IgG captured, trimer as analyte
# [17] = target: 16055 NFL-TD+CC2-D4K_L555P (HIV-1 16055 (clade C)); assay: BLI, IgG captured, trimer as analyte
# [18] = target: BG505 NFL-TD+CC2-D4K_I559P (HIV-1 BG505 (clade A)); assay: BLI, IgG captured, trimer as analyte
# [19] = target: 16055 NFL-TD+CC2-D4K_I559P (HIV-1 16055 (clade C)); assay: ELISA, His-captured trimer
# [20] = target: 16055 NFL-L555P (HIV-1 16055 (clade C)); assay: ELISA, His-captured trimer
# [21] = target: 16055 NFL-Q563P (HIV-1 16055 (clade C)); assay: ELISA, His-captured trimer
# [22] = target: 16055 NFL-TD+CC2-D4K_L555P (HIV-1 16055 (clade C)); assay: ELISA, His-captured trimer
# [23] = target: BG505 NFL-N554P (HIV-1 BG505 (clade A)); assay: BLI, IgG captured, trimer as analyte
# [24] = target: 16055 NFL (I559P) parental (HIV-1 16055 (clade C)); assay: BLI, IgG captured, trimer as analyte
# [25] = target: 16055 NFL-Q562P (HIV-1 16055 (clade C)); assay: BLI, IgG captured, trimer as analyte
# [26] = target: BG505 NFL (I559P) parental (HIV-1 BG505 (clade A)); assay: BLI, IgG captured, trimer as analyte
# [27] = target: 16055 NFL-L555P (HIV-1 16055 (clade C)); assay: BLI, IgG captured, trimer as analyte
# [28] = target: 16055 NFL-Q563P (HIV-1 16055 (clade C)); assay: BLI, IgG captured, trimer as analyte
# [29] = target: BG505 NFL-L555P (HIV-1 BG505 (clade A)); assay: BLI, IgG captured, trimer as analyte
# [30] = target: BG505 NFL-S553P (HIV-1 BG505 (clade A)); assay: BLI, IgG captured, trimer as analyte
# [31] = target: BG505 NFL-Q563P (HIV-1 BG505 (clade A)); assay: BLI, IgG captured, trimer as analyte
# [32] = target: BG505 NFL-Q562P (HIV-1 BG505 (clade A)); assay: BLI, IgG captured, trimer as analyte
substance,measurement,setting,value
VRC34 (antibody),EC50,[1],2.43 µg/mL
same,EC50,[2],0.692 µg/mL
same,EC50,[3],0.037 µg/mL
same,EC50,[4],0.034 µg/mL
same,EC50,[5],0.464 µg/mL
same,EC50,[6],0.434 µg/mL
same,EC50,[7],0.457 µg/mL
same,EC50,[8],0.032 µg/mL
same,EC50,[9],1.01 µg/mL
same,EC50,[10],0.017 µg/mL
same,EC50,[11],0.035 µg/mL
same,EC50,[12],0.072 µg/mL
same,Kd,[13],44 nM
same,koff,[13],0.002 s⁻¹
same,kon,[13],44000 M⁻¹ s⁻¹
same,Kd,[14],92 nM
same,koff,[14],0.0038 s⁻¹
same,kon,[14],41000 M⁻¹ s⁻¹
same,Kd,[15],63 nM
same,koff,[15],0.0027 s⁻¹
same,kon,[15],43000 M⁻¹ s⁻¹
same,Kd,[16],1.3 nM
same,koff,[16],4e-05 s⁻¹
same,kon,[16],27000 M⁻¹ s⁻¹
same,Kd,[17],75 nM
same,koff,[17],0.0038 s⁻¹
same,kon,[17],50000 M⁻¹ s⁻¹
same,Kd,[18],12 nM
same,koff,[18],0.0005 s⁻¹
same,kon,[18],43000 M⁻¹ s⁻¹
VRC01 (antibody),EC50,[1],0.051 µg/mL
same,EC50,[2],0.055 µg/mL
same,EC50,[3],0.066 µg/mL
same,EC50,[19],0.059 µg/mL
same,EC50,[4],0.208 µg/mL
same,EC50,[5],0.05 µg/mL
same,EC50,[6],0.021 µg/mL
same,EC50,[20],0.178 µg/mL
same,EC50,[21],0.294 µg/mL
same,EC50,[7],0.059 µg/mL
same,EC50,[8],0.178 µg/mL
same,EC50,[9],0.032 µg/mL
same,EC50,[10],0.07 µg/mL
same,EC50,[11],0.069 µg/mL
same,EC50,[22],0.067 µg/mL
same,EC50,[12],0.042 µg/mL
PGT145 (antibody),EC50,[1],0.014 µg/mL
same,EC50,[3],0.016 µg/mL
same,EC50,[19],0.015 µg/mL
same,EC50,[4],0.019 µg/mL
same,EC50,[5],0.016 µg/mL
same,EC50,[6],0.013 µg/mL
same,EC50,[20],0.014 µg/mL
same,EC50,[21],0.013 µg/mL
same,EC50,[7],0.011 µg/mL
same,EC50,[8],0.015 µg/mL
same,EC50,[9],0.012 µg/mL
same,EC50,[10],0.018 µg/mL
same,EC50,[11],0.015 µg/mL
same,EC50,[22],0.014 µg/mL
same,EC50,[12],0.013 µg/mL
same,Kd,[23],4.3 nM
same,Kd,[13],19 nM
same,koff,[13],0.0031 s⁻¹
same,kon,[13],170000 M⁻¹ s⁻¹
same,Kd,[24],1.9 nM
same,Kd,[14],25 nM
same,koff,[14],0.0056 s⁻¹
same,kon,[14],220000 M⁻¹ s⁻¹
same,Kd,[25],2.9 nM
same,koff,[25],0.0009 s⁻¹
same,kon,[25],300000 M⁻¹ s⁻¹
same,Kd,[26],6.2 nM
same,Kd,[15],16 nM
same,koff,[15],0.004 s⁻¹
same,kon,[15],240000 M⁻¹ s⁻¹
same,Kd,[27],3.3 nM
same,koff,[27],0.001 s⁻¹
same,kon,[27],310000 M⁻¹ s⁻¹
same,Kd,[28],1.6 nM
same,koff,[28],0.0005 s⁻¹
same,kon,[28],320000 M⁻¹ s⁻¹
same,Kd,[16],21 nM
same,koff,[16],0.0034 s⁻¹
same,kon,[16],160000 M⁻¹ s⁻¹
same,Kd,[29],2.9 nM
same,Kd,[30],5 nM
same,Kd,[31],3.6 nM
same,Kd,[17],16 nM
same,koff,[17],0.0035 s⁻¹
same,kon,[17],220000 M⁻¹ s⁻¹
same,Kd,[18],16 nM
same,koff,[18],0.0027 s⁻¹
same,kon,[18],170000 M⁻¹ s⁻¹
same,Kd,[32],6.2 nM
PGDM1400 (antibody),EC50,[1],0.042 µg/mL
same,EC50,[3],0.038 µg/mL
same,EC50,[19],0.025 µg/mL
same,EC50,[4],0.03 µg/mL
same,EC50,[5],0.039 µg/mL
same,EC50,[6],0.018 µg/mL
same,EC50,[20],0.019 µg/mL
same,EC50,[21],0.016 µg/mL
same,EC50,[7],0.018 µg/mL
same,EC50,[8],0.025 µg/mL
same,EC50,[9],0.2 µg/mL
same,EC50,[10],0.02 µg/mL
same,EC50,[11],0.04 µg/mL
same,EC50,[22],0.021 µg/mL
same,EC50,[12],0.038 µg/mL
same,Kd,[23],2.5 nM
same,Kd,[13],23 nM
same,koff,[13],0.002 s⁻¹
same,kon,[13],88000 M⁻¹ s⁻¹
same,Kd,[14],21 nM
same,koff,[14],0.0021 s⁻¹
same,kon,[14],98000 M⁻¹ s⁻¹
same,Kd,[25],1.4 nM
same,koff,[25],0.0003 s⁻¹
same,kon,[25],230000 M⁻¹ s⁻¹
same,Kd,[26],11 nM
same,Kd,[15],14 nM
same,koff,[15],0.0016 s⁻¹
same,kon,[15],110000 M⁻¹ s⁻¹
same,Kd,[27],2.3 nM
same,koff,[27],0.0004 s⁻¹
same,kon,[27],200000 M⁻¹ s⁻¹
same,Kd,[28],1.3 nM
same,koff,[28],0.0004 s⁻¹
same,kon,[28],300000 M⁻¹ s⁻¹
same,Kd,[16],24 nM
same,koff,[16],0.0018 s⁻¹
same,kon,[16],76000 M⁻¹ s⁻¹
same,Kd,[29],5.1 nM
same,Kd,[30],11 nM
same,Kd,[31],5 nM
same,Kd,[17],13 nM
same,koff,[17],0.0016 s⁻¹
same,kon,[17],120000 M⁻¹ s⁻¹
same,Kd,[18],18 nM
same,koff,[18],0.0016 s⁻¹
same,kon,[18],88000 M⁻¹ s⁻¹
same,Kd,[32],13 nM
